# From article PMC10183829 (2023)
# No end group written: not given here. TAMRA = 5(6)-carboxytetramethylrhodamine
# B1: HsC53 wt (purified) (natural protein)
# chain: MEDHQHVPIDIQTSKLLDWLVDRRHCSLKWQSLVLTIREKINAAIQDMPESEEIAQLLSGSYIHYFHCLRILDLLKGTEASTKNIFGRYSSQRMKDWQEIIALYEKDNTYLVELSSLLVRNVNYEIPSLKKQIAKCQQLQQEYSRKEEECQAGAAEMREQFYHSCKQYGITGENVRGELLALVKDLPSQLAEIGAAAQQSLGEAIDVYQASVGFVCESPTEQVLPMLRFVQKRGNSTVYEWRTGTEPSVVERPHLEELPEQVAEDAIDWGDFGVEAVSEGTDSGISAEAAGIDWGIFPESDSKDPGGDGIDWGDDAVALQITVLEAGTQAPEGVARGPDALTLLEYTETRNQFLDELMELEIFLAQRAVELSEEADVLSVSQFQLAPAILQGQTKEKMVTMVSVLEDLIGKLTSLQLQHLFMILASPRYVDRVTEFLQQKLKQSQLLALKKELMVQKQQEALEEQAALEPKLDLLLEKTKELQKLIEADISKRYSGRPVNLMGTSL
# B2: ATG8A (purified) (natural protein)
# chain: MAKSSFKISNPLEARMSESSRIREKYPDRIPVIVEKAGQSDVPDIDKKKYLVPADLTVGQFVYVVRKRIKLGAEKAIFVFVKNTLPPTAALMSAIYEEHKDEDGFLYMTYSGENTFG
# Tests used:
# [1] = target: B2; test: FP
# [2] = target: GABARAP (purified) (human, UniProt O95166 3-116); test: ITC
# Sequence of GABARAP (purified) (O95166 3-116): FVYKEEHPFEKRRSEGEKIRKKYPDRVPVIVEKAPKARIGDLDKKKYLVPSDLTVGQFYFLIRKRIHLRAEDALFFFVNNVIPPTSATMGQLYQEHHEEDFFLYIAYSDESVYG
# [3] = target: sAIM3; test: FP
# [4] = target: cAIM mut; test: FP
# [5] = target: HsUFM1 (purified) (human, UniProt P61960 1-85); test: ITC
# Sequence of HsUFM1 (purified) (P61960 whole entry): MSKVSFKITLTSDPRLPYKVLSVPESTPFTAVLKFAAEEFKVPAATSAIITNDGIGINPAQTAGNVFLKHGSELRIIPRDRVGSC
binder,measurement,setting,value
{TAMRA}-ETPEIDWDVSMVEEV [peptide derived from sAIM2 (AtC53 IDR)],Kd,[1],56.8 µM
B1,Kd,[2],20.9 µM
{TAMRA}-DLGSYEIVNASDI [peptide derived from the cAIM of the AtC53 IDR],Kd,[1],62.5 µM
{TAMRA}-AADSIDWDITVET [peptide derived from sAIM1 (AtC53 IDR)],Kd,[1],97.6 µM
B2,Kd,[3],176 µM
same,Kd,[4],94.3 µM
GPLHDDNEWNISVVDD [UBA5 LIR],Kd,[5],7.51 µM
